Results as given in patent publication US20230167164A1 (IMMUNOWAKE, published 2023).
Residue numbers refer to the chain shown, from its start. Numbers in names are those of the source.

Assays:
[1] = target: T1, mouse PD-1 (mouse, UniProt Q02242 25-167, limits assumed); experiment: PD-L1-Fc format, calibrated on PD-L1(wt)-Fc binding affinity
T1 construct: also called mPD-1
T1 sequence (looked up): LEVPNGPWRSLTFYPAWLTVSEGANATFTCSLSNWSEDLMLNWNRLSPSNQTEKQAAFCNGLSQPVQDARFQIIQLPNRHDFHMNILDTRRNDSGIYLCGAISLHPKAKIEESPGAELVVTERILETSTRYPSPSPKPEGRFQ

[2] = target: T2, human PD-1 (human, UniProt Q15116 25-167, limits assumed); experiment: as above
T2 construct: nivolumab is called an anti-human PD-1 antibody; also called hPD-1

[3] = target: T3, human IL-2 receptor (human, UniProt P01589 22-272; P14784 27-551; P31785 23-369); experiment: cell-based or functional assay
T3 sequence (looked up) 1: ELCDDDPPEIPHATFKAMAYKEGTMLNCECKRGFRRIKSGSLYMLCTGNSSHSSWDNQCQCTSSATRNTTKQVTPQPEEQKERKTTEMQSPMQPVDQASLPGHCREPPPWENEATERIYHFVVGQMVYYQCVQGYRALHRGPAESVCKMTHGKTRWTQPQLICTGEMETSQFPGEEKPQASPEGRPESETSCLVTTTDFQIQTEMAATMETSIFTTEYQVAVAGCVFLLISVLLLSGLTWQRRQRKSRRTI
T3 sequence (looked up) 2: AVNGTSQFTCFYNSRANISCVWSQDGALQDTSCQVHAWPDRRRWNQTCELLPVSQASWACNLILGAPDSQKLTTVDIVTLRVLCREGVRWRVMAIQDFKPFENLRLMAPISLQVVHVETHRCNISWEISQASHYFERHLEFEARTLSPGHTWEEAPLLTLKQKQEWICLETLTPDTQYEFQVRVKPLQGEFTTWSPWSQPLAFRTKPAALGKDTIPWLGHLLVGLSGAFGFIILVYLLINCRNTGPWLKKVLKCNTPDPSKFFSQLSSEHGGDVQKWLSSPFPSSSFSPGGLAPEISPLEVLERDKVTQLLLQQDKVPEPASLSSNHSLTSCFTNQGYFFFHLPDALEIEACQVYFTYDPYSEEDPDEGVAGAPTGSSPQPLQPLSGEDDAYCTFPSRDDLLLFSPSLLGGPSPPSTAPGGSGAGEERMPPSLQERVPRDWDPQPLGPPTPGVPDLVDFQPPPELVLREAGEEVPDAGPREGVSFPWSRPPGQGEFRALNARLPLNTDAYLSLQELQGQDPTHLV
T3 sequence (looked up) 3: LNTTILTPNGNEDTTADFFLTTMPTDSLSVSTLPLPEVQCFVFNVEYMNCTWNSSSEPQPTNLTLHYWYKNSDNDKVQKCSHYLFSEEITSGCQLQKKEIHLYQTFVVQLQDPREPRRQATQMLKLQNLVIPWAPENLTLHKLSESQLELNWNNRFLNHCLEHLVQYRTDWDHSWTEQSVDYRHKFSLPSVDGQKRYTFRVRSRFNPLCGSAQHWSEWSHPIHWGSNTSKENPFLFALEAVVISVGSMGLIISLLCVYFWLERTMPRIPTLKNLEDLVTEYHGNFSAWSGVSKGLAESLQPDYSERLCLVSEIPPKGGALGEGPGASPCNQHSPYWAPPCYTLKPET

[4] = target: T4, human PD-1 overexpressed on HEK-Blue reporter cells (human, UniProt Q15116 25-288); experiment: cell-based or functional assay
[5] = target: human IL-12 receptor complex (human, UniProt P42701 24-662; Q99665 24-862); experiment: cell-based or functional assay
[6] = target: T3, human IL-2 receptor; experiment: cell-based or functional assay; remark: listed apart in the source
[7] = target: T4, human PD-1 overexpressed on HEK-Blue …; experiment: cell-based or functional assay; remark: listed apart in the source

T4 sequence (Q15116 25-288): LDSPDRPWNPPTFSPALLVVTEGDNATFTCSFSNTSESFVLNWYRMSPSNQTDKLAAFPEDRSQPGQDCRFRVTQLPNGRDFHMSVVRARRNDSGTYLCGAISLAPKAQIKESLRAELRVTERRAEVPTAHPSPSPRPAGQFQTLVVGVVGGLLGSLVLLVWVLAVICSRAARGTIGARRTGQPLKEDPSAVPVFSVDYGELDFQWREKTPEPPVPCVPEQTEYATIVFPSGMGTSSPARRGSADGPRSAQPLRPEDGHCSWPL
Sequence of human IL-12 receptor complex (Q99665 24-862, chain 2 of 2, other chains not shown): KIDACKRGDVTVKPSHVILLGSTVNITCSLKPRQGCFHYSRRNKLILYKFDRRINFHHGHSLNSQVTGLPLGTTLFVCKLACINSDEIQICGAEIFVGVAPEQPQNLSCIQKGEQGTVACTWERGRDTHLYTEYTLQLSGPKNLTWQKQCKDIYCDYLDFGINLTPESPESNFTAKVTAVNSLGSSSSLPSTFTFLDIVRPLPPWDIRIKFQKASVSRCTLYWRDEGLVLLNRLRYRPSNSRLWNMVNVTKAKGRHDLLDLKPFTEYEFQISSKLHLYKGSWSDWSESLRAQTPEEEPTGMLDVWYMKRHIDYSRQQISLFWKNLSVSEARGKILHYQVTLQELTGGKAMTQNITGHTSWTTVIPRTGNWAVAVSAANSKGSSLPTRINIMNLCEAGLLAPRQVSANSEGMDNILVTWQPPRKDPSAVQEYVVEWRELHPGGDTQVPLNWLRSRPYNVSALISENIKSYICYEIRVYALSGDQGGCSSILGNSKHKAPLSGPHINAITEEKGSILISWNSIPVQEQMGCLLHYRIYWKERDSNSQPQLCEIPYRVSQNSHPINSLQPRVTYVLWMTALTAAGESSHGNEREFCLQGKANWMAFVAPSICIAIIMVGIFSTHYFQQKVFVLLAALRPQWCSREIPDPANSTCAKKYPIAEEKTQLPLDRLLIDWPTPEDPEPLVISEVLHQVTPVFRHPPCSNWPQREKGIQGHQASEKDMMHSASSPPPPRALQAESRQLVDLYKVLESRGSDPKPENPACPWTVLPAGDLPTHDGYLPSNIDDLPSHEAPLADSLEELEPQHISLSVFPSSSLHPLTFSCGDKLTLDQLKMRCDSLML
T2 sequence (Q15116 25-167 limits assumed): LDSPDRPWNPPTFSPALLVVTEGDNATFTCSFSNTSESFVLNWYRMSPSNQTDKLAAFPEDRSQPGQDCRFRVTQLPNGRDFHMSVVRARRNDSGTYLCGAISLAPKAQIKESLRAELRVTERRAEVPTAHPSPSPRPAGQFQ

B1: PD-L1(mut6)-Fc (Fc fusion)
chain 1: FTVTVPKDLYVVEYGSNMTIECKFPVEKQLDLAALQVYWMMEDKNIIQFVHGEEDLKVQHSSYRQRARLLKDQLSLGNAALQITDVKLQDAGVYTCLISYKGADYKRITVKVNAPYNKINQRILVVDPVTSEHELTCQAEGYPKAEVIWTSSDHQVLSGKTTTTNSKREEKLFNVTSTLRINTTTNEIFYCTFRRLDPEENHTAELVIPELPLAHPPNERDKTHTCPPCPAPEDEGGPSVFLFPPKPKDTLMISRTPEVTCVVVDVSHEDPEVKFNWYVDGVEVHNAKTKPREEQYNSTYRVVSVLTVLHQDWLNGKEYKCKVSNKALPAPIEKTISKAKGQPREPQVYVYPPSREEMTKNQVSLTCLVKGFYPSDIAVEWESNGQPENNYKTTPPVLDEDGSFALVSKLTVDKSRWQQGNVFSCSVMHEALHNHYTQKSLSLSPGK
chain 2: B1 chain 1 with D234K, E235K, Y351L, T366L, N390R, K392M, T394W, E400S, A405F, V407Y
notes: also called PD-L1(I54Q/E58M/R113T/M115L/G119K)
Kd [1]: 0.42 µM
Kd [2]: 0.555 µM

B2: PD-L1(mut7)-Fc (Fc fusion)
chain 1: B1 chain 1 with S99A, K101G
chain 2: FTVTVPKDLYVVEYGSNMTIECKFPVEKQLDLAALQVYWMMEDKNIIQFVHGEEDLKVQHSSYRQRARLLKDQLSLGNAALQITDVKLQDAGVYTCLIAYGGADYKRITVKVNAPYNKINQRILVVDPVTSEHELTCQAEGYPKAEVIWTSSDHQVLSGKTTTTNSKREEKLFNVTSTLRINTTTNEIFYCTFRRLDPEENHTAELVIPELPLAHPPNERDKTHTCPPCPAPEKKGGPSVFLFPPKPKDTLMISRTPEVTCVVVDVSHEDPEVKFNWYVDGVEVHNAKTKPREEQYNSTYRVVSVLTVLHQDWLNGKEYKCKVSNKALPAPIEKTISKAKGQPREPQVYVLPPSREEMTKNQVSLLCLVKGFYPSDIAVEWESNGQPENRYMTWPPVLDSDGSFFLYSKLTVDKSRWQQGNVFSCSVMHEALHNHYTQKSLSLSPGK
notes: also called PD-L1(I54Q/E58M/R113T/M115L/S117A)
Kd [1]: 0.11 µM
Kd [2]: 0.098 µM

B3: IL-2(R38D/K43E/E61R)/PD-L1(mut2)-Fc (Fc fusion)
chain 1: FTVTVPKDLYVVEYGSNMTIECKFPVEKQLDLAALQVYWMMEDKNIIQFVHGEEDLKVQHSSYRQRARLLKDQLSLGNAALQITDVKLQDAGVYTCLIAYKGADYKRITVKVNAPYNKINQRILVVDPVTSEHELTCQAEGYPKAEVIWTSSDHQVLSGKTTTTNSKREEKLFNVTSTLRINTTTNEIFYCTFRRLDPEENHTAELVIPELPLAHPPNERGGGSGAPTSSSTKKTQLQLEHLLLDLQMILNGINNYKNPKLTDMLTFEFYMPKKATELKHLQCLERELKPLEEVLNLAQSKNFHLRPRDLISNINVIVLELKGSETTFMCEYADETATIVEFLNRWITFCQSIISTLTGGGGSGGGDKTHTCPPCPAPEKKGGPSVFLFPPKPKDTLMISRTPEVTCVVVDVSHEDPEVKFNWYVDGVEVHNAKTKPREEQYNSTYRVVSVLTVLHQDWLNGKEYKCKVSNKALPAPIEKTISKAKGQPREPQVYVLPPSREEMTKNQVSLLCLVKGFYPSDIAVEWESNGQPENRYMTWPPVLDSDGSFFLYSKLTVDKSRWQQGNVFSCSVMHEALHNHYTQKSLSLSPGK
chain 2: FTVTVPKDLYVVEYGSNMTIECKFPVEKQLDLAALQVYWMMEDKNIIQFVHGEEDLKVQHSSYRQRARLLKDQLSLGNAALQITDVKLQDAGVYTCLIAYKGADYKRITVKVNAPYNKINQRILVVDPVTSEHELTCQAEGYPKAEVIWTSSDHQVLSGKTTTTNSKREEKLFNVTSTLRINTTTNEIFYCTFRRLDPEENHTAELVIPELPLAHPPNERGGGGSGGGDKTHTCPPCPAPEDEGGPSVFLFPPKPKDTLMISRTPEVTCVVVDVSHEDPEVKFNWYVDGVEVHNAKTKPREEQYNSTYRVVSVLTVLHQDWLNGKEYKCKVSNKALPAPIEKTISKAKGQPREPQVYVYPPSREEMTKNQVSLTCLVKGFYPSDIAVEWESNGQPENNYKTTPPVLDEDGSFALVSKLTVDKSRWQQGNVFSCSVMHEALHNHYTQKSLSLSPGK
IL-2 signal transduction, % of rIL2, HEK-IL-2 cells [3]: 16%
IL-2 signal transduction, % of rIL2, HEK-IL-2-PD-1 cells [4]: 76%

B4: IL-2(L18R/Q22E/R38D/K43E/E61R)/PD-L1(mut2)-Fc (Fc fusion)
chain 1: B3 chain 1 with L243R, Q247E
chain 2: B3 chain 2
IL-2 signal transduction, % of rIL2, HEK-IL-2 cells [3]: 4%
IL-2 signal transduction, % of rIL2, HEK-IL-2-PD-1 cells [4]: 35%

B5: IL-2(R38D/K43E/E61R/Q126T)/IL-12(E59A/F60A)/PD-L1(mut2)-Fc (Fc fusion)
chain 1: FTVTVPKDLYVVEYGSNMTIECKFPVEKQLDLAALQVYWMMEDKNIIQFVHGEEDLKVQHSSYRQRARLLKDQLSLGNAALQITDVKLQDAGVYTCLIAYKGADYKRITVKVNAPYNKINQRILVVDPVTSEHELTCQAEGYPKAEVIWTSSDHQVLSGKTTTTNSKREEKLFNVTSTLRINTTTNEIFYCTFRRLDPEENHTAELVIPELPLAHPPNERGGGGSGGGIWELKKDVYVVELDWYPDAPGEMVVLTCDTPEEDGITWTLDQSSEVLGSGKTLTIQVKAAGDAGQYTCHKGGEVLSHSLLLLHKKEDGIWSTDILKDQKEPKNKTFLRCEAKNYSGRFTCWWLTTISTDLTFSVKSSRGSSDPQGVTCGAATLSAERVRGDNKEYEYSVECQEDSACPAAEESLPIEVMVDAVHKLKYENYTSSFFIRDIIKPDPPKNLQLKPLKNSRQVEVSWEYPDTWSTPHSYFSLTFCVQVQGKSKREKKDRVFTDKTSATVICRKNASISVRAQDRYYSSSWSEWASVPCSGGGGSGGGSGGGGSRNLPVATPDPGMFPCLHHSQNLLRAVSNMLQKARQTLEFYPCTSEEIDHEDITKDKTSTVEACLPLELTKNESCLNSRETSFITNGSCLASRKTSFMMALCLSSIYEDLKMYQVEFKTMNAKLLMDPKRQIFLDQNMLAVIDELMQALNFNSETVPQKSSLEEPDFYKTKIKLCILLHAFRIRAVTIDRVMSYLNASGGGGSGGGDKTHTCPPCPAPEDEGGPSVFLFPPKPKDTLMISRTPEVTCVVVDVSHEDPEVKFNWYVDGVEVHNAKTKPREEQYNSTYRVVSVLTVLHQDWLNGKEYKCKVSNKALPAPIEKTISKAKGQPREPQVYVYPPSREEMTKNQVSLTCLVKGFYPSDIAVEWESNGQPENNYKTTPPVLDEDGSFALVSKLTVDKSRWQQGNVFSCSVMHEALHNHYTQKSLSLSPGK
chain 2: B3 chain 1 with Q351T
IL-12 signal transduction, % of rIL-12, HEK-IL-12 cells [5]: < 0.2%
IL-2 signal transduction, % of rIL-2, HEK-IL-2 cells [6]: 2%
IL-2 signal transduction, % of rIL-2, HEK-IL-2-PD-1 cells [7]: 20%
IL-12 signal transduction, % of rIL-12, HEK-IL-12-PD-1 cells [7]: 25%

B6: IL-2(L18R/Q22E/R38D/K43E/E61R)/IL-12(E59A/F60A)/PD-L1(mut2)-Fc (Fc fusion)
chain 1: B5 chain 1
chain 2: B3 chain 1 with L243R, Q247E
IL-12 signal transduction, % of rIL-12, HEK-IL-12 cells [5]: < 0.2%
IL-2 signal transduction, % of rIL-2, HEK-IL-2 cells [6]: 4%
IL-2 signal transduction, % of rIL-2, HEK-IL-2-PD-1 cells [7]: 35%
IL-12 signal transduction, % of rIL-12, HEK-IL-12-PD-1 cells [7]: 19%

B7: IL-2(R38D/K43E/E61R/Q126T)/PD-L1(mut2)-Fc (Fc fusion)
chain 1: B3 chain 1 with Q351T
chain 2: B3 chain 2
IL-2 signal transduction, % of rIL2, HEK-IL-2 cells [3]: 2%
IL-2 signal transduction, % of rIL2, HEK-IL-2-PD-1 cells [4]: 20%

B8: IL-2(L18R/Q22E/R38D/K43E/E61R/Q126T/S130R)/PD-L1(mut2)-Fc (Fc fusion)
chain 1: B3 chain 1 with L243R, Q247E, Q351T, S355R
chain 2: B3 chain 2
IL-2 signal transduction, % of rIL2, HEK-IL-2 cells [3]: < 0.1%
IL-2 signal transduction, % of rIL2, HEK-IL-2-PD-1 cells [4]: < 0.1%

B9: IL-2(L18R/Q22E/R38D/K43E/E61R/Q126T)/PD-L1(mut2)-Fc (Fc fusion)
chain 1: B3 chain 1 with L243R, Q247E, Q351T
chain 2: B3 chain 2
IL-2 signal transduction, % of rIL2, HEK-IL-2 cells [3]: < 0.1%
IL-2 signal transduction, % of rIL2, HEK-IL-2-PD-1 cells [4]: 5%
